Measured values taken from article PMC9008036, “Structural and molecular determinants for the interaction of ExbB from Serratia marcescens and HasB, a TonB paralog” (Communications Biology, 2022).

Key:
[1] = target: ExbBSm, untagged, co-expressed and co-purified with ExbDSm-His6 (from pBADExbBDSmHis6) (Serratia marcescens); assay: cryo-EM structure; purified ExbBDSm complex (His6 on ExbD) in LMNG micelles, ca. 1 mg/mL, 20 mM Tris pH 8.0, 100 mM NaCl, 0.0015% LMNG; single-particle, C1, 3.96 Å
[2] = target: ExbBSm, C-terminally His6-tagged (from pBADExbBSmHis6), purified alone (Serratia marcescens); assay: cryo-EM structure; purified ExbBSm-His6 alone in LMNG micelles, ca. 1 mg/mL, 20 mM Tris pH 8.0, 100 mM NaCl, 0.0015% LMNG; single-particle, C5 symmetry, 3.1 Å
[3] = target: T1, C-terminal periplasmic domain of HasB, HasBCTD, residues 133-263 (Serratia marcescens, UniProt Q79AD1 133-263, 15N-labeled); assay: NMR titration; 1H-15N HSQC of 0.15 mM 15N-labeled HasBCTD, 50 mM sodium phosphate pH 7, 50 mM NaCl, 293 K, 600 MHz; peptide added at 2:1 and 10:1 ratios; chemical shift perturbations; settings: both partners purified
T1 construct: HasB, TonB paralog of Serratia marcescens, C-terminal periplasmic domain, residues 133-263; also called C-terminal globular domain of HasB
T1 sequence (looked up): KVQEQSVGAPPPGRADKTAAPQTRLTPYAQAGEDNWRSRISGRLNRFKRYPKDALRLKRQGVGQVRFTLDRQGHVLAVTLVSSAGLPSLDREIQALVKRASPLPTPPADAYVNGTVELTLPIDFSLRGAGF

ExbBSm, untagged, co-expressed and co-purified with ExbDSm-His6 (from pBADExbBDSmHis6) (natural protein)
stoichiometry N [1]: 5

ExbDSm, C-terminally His6-tagged (from pBADExbBDSmHis6) (natural protein)
stoichiometry N (ExbD monomers per ExbB pentamer) [1]: 2

ExbBSm, C-terminally His6-tagged (from pBADExbBSmHis6), purified alone (natural protein)
stoichiometry N [2]: 5

B1: ExbBSm 1-44 synthetic peptide (periplasmic extension of ExbBSm) (peptide)
peptide: APAANPAVTESVAPTTAPAPAAAAPESITPVNPAPTIQPPETRG
notes: ExbB of Serratia marcescens Db11 (SMDB11_3480), periplasmic N-terminal extension, residues 1-44. numbers count on: the mature protein; also called periplasmic peptide of ExbBSm residues 1-44; periplasmic fragment of ExbBSm; source: synthetic peptide (Proteogenix)
binding result [3]: binds
